Data: the supplement of paper PMC10567573

B1: NP_006221.1 (parent)
chain: CQPISFSGFGAEDDDLGGLGLGP
B2: GMCL1 (parent)
chain: RPDTGDDAAGHGFCYCAGSHKRKR
B3: CDKN1A (parent)
chain: RRQTSMTDFYHSKRRLIFSKRKP

Variants of: B1
Test: protein stability index of a GFP-peptide fusion (GPS, HEK-293T) (PSI 1-6); higher = more stable
Settings: c terminus: native

Protein stability index: each site, then its substitutions
F6: Q 4.21
G10: R 2.21
I4: W 2.25
E12: Y 2.12
D14: C 2.12
G8: Y 2.31

Variants of: B2
Test: as above
Settings: c terminus: a fixed tail appended

Protein stability index of substitutions, site by site:
R24: A 3.53, S 3.47, I 3.33, K 3.65, E 3.64, P 3.94, Q 3.35, V 3.38, D 4.3, C 4.32, N 3.84, Y 3.75, M 2.77, L 2.66, F 3.18, G 3.4, T 3.04, W 2.87, H 4.13
K23: S 3.12, M 2.32, F 1.9, Y 2.22, R 2.37, N 3.03, G 2.9, Q 2.92, I 3.04, T 2.18, D 3.33, W 1.95, H 3.1, E 2.94, L 2.16, P 2.84, V 2.33

Variants of: B3
Test: as above
Settings: c terminus: native

Protein stability index: each site, then its substitutions
I17: M 3.71, T 2.63, L 3.47, G 1.79, S 2.99, Y 2.76, K 1.86, E 3.68, A 2.48, P 3.06
D8: M 2.65, S 2.95, L 2.32, K 3.12, Y 1.55, E 3.76, P 2.14, F 3.24, R 1.14, G 2.29, T 3.06
Y10: R 3.01, T 3.41, P 2.22, A 3.44, C 1.4, I 2.79, E 2.83, Q 2.75, M 3.11, W 2.66, V 2.77, N 1.72, K 1.57
P23: A 1.85, V 2.57, F 2.76, M 2.46, W 3.55, C 3.15, Y 3.15, L 2.84, D 2.49, I 2.74, K 2.95, G 2.48
S19: C 2.57, W 1.71, L 2.33, M 2.96, N 1.85, I 2.54, D 1.43, Y 2.84, H 1.53, Q 2.08, P 2.08, R 2.46, T 1.77, K 1.91, F 2.44, A 2.87
L16: P 3.36, F 3.4, K 2.21, S 2.86, Y 1.65, H 2.87, T 2.17, M 1.54, G 3.3, C 2.32, Q 2.53
F18: L 1.65, C 1.69, W 2.28, K 2.26, S 3.17, V 2.3, T 2.45, D 3.34, Y 2.46, Q 1.79, P 2.82, I 2.23, E 3.49, A 2.87, R 2.05
T4: V 3.23, F 2.21, R 1.8, E 3.64, K 2.26, A 2.23, L 2.1, Y 2.22, C 2.33, P 2.86, W 4.11, S 2.62
K22: I 2.35, M 3.93, N 3.35, F 1.77, A 1.72, Y 2.55, V 3.36, W 2.91, T 2.58, R 4.35, Q 2.42, L 1.74, S 3.2, D 1.85
R2: S 1.11, P 3.33, N 3.28, M 4.02, W 2.28, V 2.74, G 3.55, D 2.5, K 1.75, L 1.97, A 2.1, I 2.89
R14: H 4.02, W 3.61, Q 4.01, D 2.81, K 4.64, E 3.86, A 2.14, S 1.83, C 2.69, T 1.99, I 2.18, N 2.75, L 3.27, M 3.31
H11: N 1.47, K 3.46, L 3.32, E 2.37, A 2.49, S 2.69, Q 2.55, D 1.65, I 2.03, F 2.93, P 2.49, G 2.88, V 1.43, Y 1.66
K13: S 3.39, Q 1.8, I 2.36, H 1.75, L 2.51, D 2.39, W 2.83, E 3.4, P 3.13, Y 2.37, A 3, N 2.55, V 2.27, G 1.81, F 2.44, C 3.33, T 2.31
K20: V 2.1, M 1.81, Y 1.9, R 2.21, F 2.31, N 1.03, P 1.54, S 2.23, A 2.73, E 2.33
S5: L 2.69, P 1.9, A 3, T 2.38, E 2.5, R 2.53, Q 2.55, G 3.9, F 1.93, V 2.27, D 2.95, N 1.73, K 2.87, M 2.73, C 1.67, Y 2.19, H 3.12
R1: L 1.96, W 2.69, K 2.57, G 1.02, I 1.98, N 2.77, Q 1.72, F 3.44, A 1.71, E 3, S 2.99, V 2.34, Y 2.74, T 3.87, M 2.04
Q3: L 4.67, R 2.49, T 2.71, K 2.72, G 3.86, S 2.27, F 2.24
M6: N 3.37, P 1.34, D 1.96, F 2.03, L 2.93, A 2.57, Y 1.92, W 2.56, H 2.36, I 2.14, K 3.44
S12: N 3.42, F 1.59, E 2.92, A 2.99, Y 2.15, C 2.98, I 3.96, P 2.31, G 2.07, V 2.01, M 2.75, W 2.39
T7: K 2.19, W 1.87, Y 1.79, S 2.44, F 2.06, E 3.61, C 1.94, R 1.87, Q 2.1, H 2.4, N 3.04, L 1.8
F9: I 3.36, T 2.25, R 2.54, V 2.43, L 2.24, D 2.72, C 2.71, K 2.4, Y 3.43, H 4.22, G 2.02
R21: P 2.73, G 3.01, C 3.54, V 3.09, N 2.79, T 3.55, Y 2.97, E 3.44, Q 2.4, I 4.52, M 3.37, S 3.09, L 2.67, K 3.61, F 2.03, A 2.5
R15: Y 2.23, P 2.52, Q 2.41, I 3, C 3.8, T 2.34, A 2.94, M 3.54, L 2.47, D 3.82
